The text below walks through data of the DeepSol protein solubility set.

The nature of this series: soluble on expression in E. coli; label from the status in PepcDB or PDB records.
“MAIVNATDQTFAAETKDGLTLVDFWAPWCGPCRMIAPVLEELDREMGDKVKIVKVNVDENQETASKFGVMSIPTLLVFKNGELVDKAIGYQPKEALVQLVGKHVS”: the “soluble on expression in E. coli” value is on record as “soluble”.
For “MESIKVVIVGGGQAGIAMGYYLVKEKVPFMILDANEQVGDSWRNRYDSLVLFTPRTYSQLPGFPMDGAPNGFPTKDEMASYLQQYANHFNLPMRHHTKVDRVTRQQNGRFHLKTTNGWIEAEKVVIATGAFQKPYLPPVLDSANNEMSQVHSSAYRNPAQIPGKSVLVVGGGNSGAQIAVELAKERNVTMAISHPFRFLPLKLLNKSMFSWLEWGGLLYAGIDTTRGRWFKKQKDPIFGKELKSLIKKGQIHLKPRVMNVQGKEVEFADHSRLSFDRIIWSTGFSPSYEWIDIDGVIATNGWPIHNRGITNIRGLYFLGLPWQYQRGSALVCGVGRDAEYLVPFIKHGDK”, the “soluble on expression in E. coli” value was “not soluble”.
Take “MEGGKLQSTFVFEEIGRRLKDIGPEVVKKVNAVFEWHITKGGNIGAKWTIDLKSGSGKVYQGPAKGAADTTIILSDEDFMEVVLGKLDPQKAFFSGRLKARGNIMLSQKLQMILKDYAKL”: the “soluble on expression in E. coli” value is “soluble”.
As for “MSLDSSPHSQVNDPLESFNRQMWTINYDYLDPYVVRPVSLFYVGYVPKPVRSGIANFLSNLDEPASMVNNLLMGNGTKAVDHFNRFWINTSFGLLGLIDIASEAGIKKYDDKAFSDAVGHYGVGNGPYLMVPGYGPYTVREVTDVVDGMYFPLAYLNIWAGVGKWALEGMETRAALVSQEALLQDSPDPYSLARDAYLQRQAFKAEIQVDDYDPEEEEYLDEYLNEGEGHHHHHH”, the “soluble on expression in E. coli” value is reported as “soluble”.
Take “PRHRLLVVGAGQLSRYLCEMAIALDFDVTVSDPRQEYRAGWQVEGVALTTAMPDDMVIAARPDARTAVIALTHDPKLDDLALIDALQTPAFYVGALGSRANHARRVARLREHFGLTPAQLARLRGPAGIY”: the “soluble on expression in E. coli” value is recorded as “not soluble”.
“MGSDKIHHHHHHMFSSPLELFKALTQIPHSSGDTTLMQKFLIQSAQSFGALVSVDSAGNILCQKGDSPRFCLQAHYDMVCVGKAPEIELFEEGGWLRAKDSSLGADNGAALACFLILLKQESSIEILFTNDEEIGMLGAKALELTPSAPLILNVDSESLQEVVISCAGGYDLELEIPATFKETPAEGYLYELSTQNFLGGHSGIDIIKNHPNALVEMAHLLASLPVEILSFEGGEKSNSIPVHAKASLFSSRPLEHLPSWIRATARPLSSPLKALDQTPLLDLLRALHSGIFAYDEESSGVLDSLNISLLKAHEKGWTLTLMGRANDKERLWRNLERARLIARAFGIKEDRLKDFYPPWEKAKSSSYLEKIKEVYERELGVCHVRSIHAGLECAVLQEKLPKAEFISIGPTILHPHSTREALDIKSFERFWEILQIITKVL”: the “soluble on expression in E. coli” value is “not soluble”.
Consider GGRGGFGGRGGFGGRGGFG, for which the “soluble on expression in E. coli” value is recorded as “soluble”.
Turning to “MLVSKSNGFNASAVLGSGSYNENKSSKHMELLAHSILKLICKEAASETYRGALETLQKMMSECIYQEGNAFVIMGAGEQLKRIKYEVGENNLKVFNVHFNNNHELVSSGEPDVICLSKQVWENLLIKLKLENNENVFSETKKLSNKNNADQFFECAKRNE”, the “soluble on expression in E. coli” value was “not soluble”.
On to “MGSDKIHHHHHHMSEKKILILCQYFYPEYVSSATLPTQLAEDLIANHINVDVMCGWPYEYSNHKQVSKTEMHRGIRIRRLKYSRFNNKSKVGRIINFFSLFSKFVINIPKMLKYDQILVYSNPPILPLIPDVLHRLLKKKYSFVVYDIAPDNAIKTGATRPGSMIDKLMRYINRHVYKNAENVIVLGTEMKNYLLNHQISKNADNIHVIPNWYDMRQLQDNRIYNDTFKAYREQYDKILLYSGNMGQLQDMETLISFLKLNKDQPQTLTILCGHGKKFADVKTAIEDHRIENVKMFEFLTGTDYADVLKIADVCIASLIKEGVGLGVPSKNYGYLAAKKPLVLIMDKQSDIVQHVEQYDAGIQIDNGDAHAIYNFINTHSSKELHEMGERAHQLFKDKYTREINTMKYYNLLK”, for which the “soluble on expression in E. coli” value is given as “not soluble”.
For “SGEIKVSPDYNWFRGTVPLKKIIVDDDDSKIWSLYDAGPRSIRCPLIFLPPVSGTADVFFRQILALTGWGYRVIALQYPVYWDHLEFCDGFRKLLDHLQLDKVHLFGASLGGFLAQKFAEYTHKSPRVHSLILCNSFSDTSIFNQTWTANSFWLMPAFMLKKIVLGNFSSGPVDPMMADAIDFMVDRLESLGQSELASRLTLNCQNSYVEPHKIRDIPVTIMDVFDQSALSTEAKEEMYKLYPNARRAHLKTGGNFPYLCRSAEVNLYVQIHLLQFHGTKYAAIDPSMVSAEELEVQKGSLGISQEEQ”, the “soluble on expression in E. coli” value was “soluble”.
For “MKLKHLDKLLAHCHRRRYTAKSTIIYAGDRCETLFFIIKGSVTILIEDDDGREMIIGYLNSGDFFGELGLFEKEGSEQERSAWVRAKVECEVAEISYAKFRELSQQDSEILYTLGSQMADRLRKTTRKVGDLAFLDVTGRVARTLLDLCQQPDAMTHPDGMQIKITRQEIGRIVGCSREMVGRVLKSLEEQGLVHVKGKTMVVFGTR”, the “soluble on expression in E. coli” value is reported as “soluble”.
Consider “MSVVGEERKRTILEKVEFKGKVKVSELAREFAVSTETIRRYLEELDREKKLKKVYGGAVQLPGAGVEAPMLEREMLHIEEKKRIGYKAATFVEDGDVIAIDDGSTPLQMVPYLVHRKNLTIVTSSFPVATQLISSINKKMFHGEVLFIGGKVSPKHSRVSGSISQQVIQQFHFHKAFVSIDGLLPSFGVSSFELEKAKLSEAMMKLAEKTYILCDHTKVGVKGNYRIAAISRIQHVICDKKMPYSFEEELMKHNIQWTVCLEHHHHHH”, for which the “soluble on expression in E. coli” value was “soluble”.
Regarding “MASGDVRIASLVPSITELLFDLGLADQLVARTGFCIHPEPAVRAVAKVGGTKDVKLDRLRALAPTHVVVNIDENRRETVDEIRTFVPHVIVTHPCAPEDNLALYRLLGGIFGRRPQAEALVGQLRGELDAIQAQTWPLEHHHHHH”, the “soluble on expression in E. coli” value is “not soluble”.
Consider “MAHHHHHHMKRGNEVAREMWAPSTWEQRMSLAGQFTTFCRTHEQPINEESRAALLVAILDVAPPTRPQHARMLRSMLEMNRTPLGMAILGLQKLAARSETRQARSLTKEGMDQFIRSRIDWNQRVVFRLACMTASRWSGIAALTPNNATLEADGTIILDWSVAPKTARADPHRAPRFVGIRGRDALDTITLCRTLQENEKLTNVTNAKVERALAPWDATAHSIKRGALRHAAQIVETCNLDPHVISQLAKHVDPFVLPQNTVRYFWKYTTVLTQVLPLVVLM”, for which the “soluble on expression in E. coli” value is “not soluble”.
“MSYYHHHHHHLESTSLYKKAGLVQRITIAPQGPEFSRFVMGYWRLMDWNMSARQLVSFIEEHLDLGVTTVDHADIYGGYQCEAAFGEALKLAPHLRERMEIVSKCGIATTAREENVIGHYITDRDHIIKSAEQSLINLATDHLDLLLIHRPDPLMDADEVADAFKHLHQSGKVRHFGVSNFTPAQFALLQSRLPFTLATNQVEISPVHQPLLLDGTLDQLQQLRVRPMAWSCLGGGRLFNDDYFQPLRDELAVVAEELNAGSIEQVVNAWVLRLPSQPLPIIGSGKIERVRAAVEAETLKMTRQQWFRIRKAALGYDVP”: the “soluble on expression in E. coli” value is recorded as “soluble”.
Consider “MGSDKIHHHHHHMKQKLRLIQRRTVHYLLVVTYWISKFFPVQTKKVVFATYRSDKLVDNFRAVYDELESRELGFQYVFLLKRFPQNLIGQIKYVFHMMRATYELATARYFIIDDYYYPVYVSKLRKGTEVIQLWHACGAFKKFGYSVLDKSYSPDDDYLKMVAIHRNYSKVYVSGEACIGPFAEAFGMDSTRIHPLGVPRTDQLLNRERQVQIEHKLYDRYPEWRSKKLILLAPTFRGNGQTTAHYDQELDFQQFREQLGPDHILLLRMHPFVLNRPVVPAEFSNQIIDMTDYPDINDLMQVADILVTDYSSVIFEFALLKKPIILLVNDLNAYREERDFYFPYESFVPGPIVSSFNDVISWIKAGQFEPEQIEDFAARFFTYQDGLATKRIVNHILTGALPDAPMRPEERKTV”, for which the “soluble on expression in E. coli” value is “not soluble”.
“MKALNLKTPGREDDDVDEVLDENTVQDVNENIMLKGLGGKENLQTIDHCATRLRLTVKDTALVDEALLKKAGAKGVVKSGGQSVQVIIGPNVEFAAEELRAAVK”: the “soluble on expression in E. coli” value is given as “not soluble”.
As to “MTLIILEGPDCCFKSTVAAKLSKELKYPIIKGSSFELAKSGNEKLFEHFNKLADEDNVIIDRFVYSNLVYAKKFKDYSILTERQLRFIEDKIKAKAKVVYLHADPSVIKKRLRVRGDEYIEGKDIDSILELYREVMSNAGLHTYSWDTGQWSSDEIAKDIIFLVELEHHHHHH”, the “soluble on expression in E. coli” value is given as “soluble”.
The value for “MAYRICLIEGDGIGHEVIPAARRVLEATGLPLEFVEAEAGWETFERRGTSVPEETVEKILSCHATLFGAATSPTRKVPGFFGAIRYLRRRLDLYANVRPAKSRPVPGSRPGVDLVIVRENTEGLYVEQERRYLDVAIADAVISKKASERIGRAALRIAEGRPRKTLHIAHKANVLPLTQGLFLDTVKEVAKDFPLVNVQDIIVDNCAMQLVMRPERFDVIVTTNLLGDILSDLAAGLVGGLGLAPSGNIGDTTAVFEPVHGSAPDIAGKGIANPTAAILSAAMMLDYLGEKEAAKRVEKAVDLVLERGPRTPDLGGDATTEAFTEAVVEALKSL” was “soluble”.
The same measure for “MAELQKVDDWLSALLANLEPAARSRMMRQLAQELRRTQQQNIRMQRNPDGSSYEPRRVTARSKKGRIKRQMFAKLRTTKYLKTAASADSASVQFEGKVQSIARVHHYGLRDRVSRKGPEVRYAERRLLGVNDDVEAMTRDMILQWLAG”: “not soluble”; for “MPYPIEEKLVIGVASSALFDLSVSDDIYQTQGVEAYRQHQEQNLDEPFPRGVALPFIRRFLSINKAFPDQLPVEVVLLSRNSPETGLRVFRSISHYQLDITRAAFMSGRSPYEYIPAFNASLFLSANEEDVQKAIDANYPAGRVLPTRIYDDEIDTELRVAFDFDGVIADDEAESVYKRNDNLDDFQEHERMHKSTPHSPGPLADLYRKLSRIRMLEDRKLAEDPTYQRILRIAIVTARNAPSHERVVTTLKDWGVSPDECFFLGGMDKPRVLSILKPHVFFDDQRTHLQSPAGNLPMVHVPFGVANRVRSPQAPDVKQDQLPISASSCMPLEHHHHHH”: “soluble”.
The value for “MSNISTPQPRIGFVSLGCPKNLVDSERILTELRTEGYQVVPRYDDAELVIVNTCGFIDSAVQESLEAIGEALNENGKVIVTGCLGAKENQIREVHPKVLEITGPHSYEQVLSHVHQYVPKPTHNPFTSLVPEQGVKLTPRHYAYLKISEGLEHHHHHH” was “soluble”; that for “GSHMKITYPLPPNLPEQLPLLTNCQLEDEAILENHLYQQIDLPNQEVRNLVFRDAVFDHLSLANGQFASFDCSNVRFEACDFSNVEWLSGSFHRVTFLRCNLTGTNFADSYLKDCLFEDCKADYASFRFANFNLVHFNQTRLVESEFFEVTWKKLLLEACDLTESNWLNTSLKGLDFSQNTFERLTFSPNYLSGLKVTPEQAIYLASALGLVIT” was “soluble”.
Take “DPFEDLDALGSILEEKYGLLEAHVVFSPTPDYAGITHDLSRYGAEYMHETVKDGDIVGVSWGTTMYQIAQNMQPKQVKGVEVVQLKGGISHSRVNTYSAETIQLFAEAFQTMPRYLPLPVVFDNADVKRMVEKDRHIERIIEMGKQANIALFTVGTVRDEALLFRLGYFNEEEKALLKKQAVGDICSRFFDAKGNICSSAINDRTIGVELQDLRLKERSILVAGGSRKVSSIHGALTGKYANVLIIDQHTARALVNDL”: the “soluble on expression in E. coli” value is “not soluble”.
The same measure for “MGSDKIHHHHHHMTQALTKQVIFDEFIDWLPENSEGRYELHDGVIVEMPKPSGKHSNVIGFLIEELFLSIIQIGKRGIWTIPRESIVKPNSKSGYEPDIIVLDQEALSNEPRWERESIIENPASVKLIVEVVSTAVASSRETRPTHCLTNWRDDYYKKRADYVRVASRREEMGIPEYWIVDYAGLGGRAFIGNPKQPTISVNYLIEGEYQVSQFRQGERIQSVTFPELDLTVDQIFQVG”: “not soluble”.
